What was measured:
[1] = target: SARS-CoV-2 RBD WT (for crystallization) (SARS-CoV-2, UniProt P0DTC2); assay: crystal structure
[2] = target: Prefusion-stabilized SARS-CoV-2 spike protein for SPR (residues 14–1211, D614G) (SARS-CoV-2 Wuhan-Hu-1 with D614G, D614G); assay: SPR
[3] = target: yeast-displayed unmutated SARS-CoV-2 RBD (Wuhan-Hu-1) (SARS-CoV-2, UniProt P0DTC2); assay: flow cytometry on cells

B1: S2X259 Fab (Fab, V domains shown)
VH: QVQLVQSGAEVKKPGSSVKVSCKASGGIFNTYTISWVRQAPGQGLEWMGRIILMSGMANYAQKIQGRVTITADKSTSTAYMELTSLRSDDTAVYYCARGFNGNYYGWGDDDAFDIWGQGTLVTVYS
VL: QTVLTQPPSVSGAPGQRVTISCTGSNSNIGAGYDVHWYQQLPGTAPKLLICGNSNRPSGVPDRFSGSKSGTSASLAITGLQAEDEADYYCQSYDSSLSGPNWVFGGGTKLTVL
**Q.** Does B1 bind [1]?
**A.** Result: binds

B2: S2D106 Fab (Fab, V domains shown)
VH: EVQLVQSGAEVKKPGSSVKVSCKASGGPFSSSAISWVRQAPGQGLEWMGGIIPMVGTANYAQKFQGRVTITADESTSTAYMELSSLRSEDTAVYYCARDSRYCSGGSCYSVWFDPWGQGTLVTVSS
VL: not shown
**Q.** How did the Kd [2] turn out when B2 was run?
**A.** Its Kd is 0.17 nM.

B3: S2H14 IgG1 (antibody, V domains shown)
VH: not shown
VL: NFMLTQPHSVSESPGKTVTISCTRSSGSIASNYVQWYQQRPGSSPTTVIYEDNQRPSGVPDRFSGSIDSSSNSASLTISGLKTEDEADYYCQSYDSSNQVFGGGTKLTVL
**Q.** Does B3 bind [3]?
**A.** Result: binds

Reference: paper PMC9282883 (Nature, 2021)
